± gives the half width of the 95% confidence interval.
Assays:
[1] = folding stability dG unfold from chymotrypsin proteolysis; higher = more stable
Experimental: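 Folding stability of de novo designed mini-proteins (<80 aa, no Cys; designed by TrROS, TrMRF, ProteinMPNN and the joint model) was measured by cDNA display proteolysis with trypsin and chymotrypsin. Each protease was used at 11 concentrations in a threefold dilution series plus a no-protease condition. K50 was inferred by Bayesian fitting of sequencing counts, and dG unfold was derived against a sequence-predicted unfolded-state K50 (Tsuboyama et al. method). Sequences shown include variable-length N-terminal GS-type padding (SAGGSAGG...) inside a display construct carrying a PA tag. Rows were kept only if the AF2 dimer inter-PAE was >15, to exclude likely homo-oligomers.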

[2] = folding stability dG unfold (combined trypsin and chymotrypsin); higher = more stable
Method in brief: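 Unfolding free energy was derived, per protease or combined, by relating Bayesian-fitted K50 values from sequencing counts to a sequence-predicted unfolded-state K50 and a shared folded-state K50. The underlying digests exposed cysteine-free mini-proteins under 80 residues, in a PA-tagged cDNA display construct, to trypsin and chymotrypsin at 11 threefold-diluted concentrations and to a no-protease condition. A filter kept only designs with AlphaFold2 dimer inter-PAE above 15.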

Sequence | folding stability dG unfold [1] [kcal/mol] | folding stability dG unfold [2] [kcal/mol]
SAGGSAGGSAGGDEIAKQIAEHFREKGLDKNREIEIRNPENGEKITVRYTPEGGDFEVEPSAGGSAGGSAGG [r7_301_TrROS] | -0.057 ± 0.17 | < -1
SAGGSAGGSAGGDPDGKPPPKIEFEMETVPIPNPDGQALEIEIFRIKGNGMLFIMIEPYSAGGSAGGSAGGS [r10_1137_TrROS] | 4.21 ± 0.29 | 4.47 ± 0.84
SAGGSAGGSAGGEPEPIPIKVKIYNPEDGKKREVDFWIPYGNIKEVLKELMPKGYKVEIESAGGSAGGSAGG [r7_230_TrROS] | -0.281 ± 0.23 | -0.506 ± 0.33
SAGGSAGGSAGGGKVTVYTDPKGGVVITTTETPDSITATVVDPSGKTTTVTVPPGAPLLSAGGSAGGSAGGS [r10_976_JUSTAS] | 0.243 ± 0.18 | -0.183 ± 0.38
SAGGSAGGSAGGGMDEEETVELDLTTKGTDPAEVEAARAARAEELGLPLADVRVRVSAESAGGSAGGSAGGS [r10_401_JUSTAS] | -0.252 ± 0.036 | < -1
SAGGSAGGSAGGGMITFSSESVEEFGSVTPVNVVRRVTRYTTKVGDTIIETTEEEVVPLESAGGSAGGSAGG [r7_248_JUSTAS] | -0.049 ± 0.4 | -0.368 ± 0.28
SAGGSAGGSAGGGMPYPIKTEVEIKKNGPNISTTETVYRPDGTKIETKKYKIPKKELKKKSAGGSAGGSAGG [r7_602_JUSTAS] | 0.154 ± 0.28 | < -1
SAGGSAGGSAGGGPEVEVETETLPTADGRPVRLVRARVPTREYLFLVSPDGEILRRIPVSAGGSAGGSAGGS [r10_97_TrMRF] | 0.331 ± 0.16 | -0.331 ± 0.22
SAGGSAGGSAGGGSMILNVRTVVEEDFPINDRRKVTVLDPVVLVPAVAFDPSTGKATPVSAGGSAGGSAGGS [r10_815_JUSTAS] | 0.667 ± 0.085 | 0.298 ± 0.083
SAGGSAGGSAGGGSMTKIGNGYLRYTLPGDTVVIYDPSTGTTQTLPVSNPVPVELPPNIPSAGGSAGGSAGG [r7_299_JUSTAS] | 0.671 ± 0.031 | 0.208 ± 0.057
SAGGSAGGSAGGHPVLLTVPRRYTYLLPGTAPRTVTVPVPVVVEVDDPEVALRLARELEGSAGGSAGGSAGG [r7_21_TrMRF] | -0.35 ± 0.73 | < -1
SAGGSAGGSAGGKKEREFKFPGAPIQAPVERNPANGKLKIDVEVTGDNPDWAKRLADAFSAGGSAGGSAGGS [r10_582_TrROS] | -0.513 ± 0.56 | < -1
SAGGSAGGSAGGKTYYVTGKLYLKDKPRVIEVKLPYPSELEEEAPERVKKLAEELAKEESAGGSAGGSAGGS [r10_313_TrMRF] | -0.394 ± 0.38 | < -1
SAGGSAGGSAGGMDEPVSLPVRKPILSPGSPEEAEARAAELKAPGVEVDAVPRDAAGRLESAGGSAGGSAGG [r11_703_JUSTAS] | 0.764 ± 0.037 | 0.126 ± 0.13
SAGGSAGGSAGGMFYIKIPNGKQFPFKSKEEFKDQLRERNGRPMKIKDIEIQPLDPNQFSAGGSAGGSAGGS [r10_62_TrROS] | 0.586 ± 0.26 | -0.0888 ± 0.32
SAGGSAGGSAGGMIDIPISPEIAENVPPGATVEVEILRDDGRIERLKVKVEDFEPVLPGGSAGGSAGGSAGG [r7_732_TrMRF] | 0.308 ± 0.044 | 0.0628 ± 0.26
SAGGSAGGSAGGMIWIPESELSKLPESFKNFKILKKTPLTLPHPSKKNKPVVLVEIEKKESAGGSAGGSAGG [r7_237_JUSTAS] | 0.696 ± 0.23 | 0.122 ± 0.53
SAGGSAGGSAGGMLSPEVGLPEVPVTLTDPTNDKVYTITVPPDTNPAEVAAALGVALLLSAGGSAGGSAGGS [r10_202_JUSTAS] | 0.699 ± 0.23 | -0.237 ± 0.38
SAGGSAGGSAGGMLVTETKPLPTPRTVATVVLLSTEEAPLPSGVLVRRETTEVKLVELISAGGSAGGSAGGS [r10_718_JUSTAS] | -0.503 ± 0.61 | < -1
SAGGSAGGSAGGMPPEETVTVTIVESKPVPDPEGNPVEPLPVKTTTITVPASNPEALAAKSAGGSAGGSAGG [r7_439_JUSTAS] | 0.00655 ± 0.072 | -0.487 ± 0.21
SAGGSAGGSAGGMPVSVETKLIEKDPVEDVEISLETFPGTDLRVIVTKTKNEVKKTVIPKSAGGSAGGSAGG [r17_370_JUSTAS] | -0.252 ± 0.13 | -0.719 ± 0.51
SAGGSAGGSAGGMSAEEVREIVEELGFDDPTEVVVLDLPDGRRVLVTNPPDGLRLEVLDSAGGSAGGSAGGS [r10_604_TrMRF] | 0.967 ± 0.053 | 0.562 ± 0.12
SAGGSAGGSAGGMSSTVTVTTTPVDPNVGLYRVTTTTYYVDPDGPAHPGTSVSLVNRALSSAGGSAGGSAGG [r11_51_JUSTAS] | -1.34 ± 0.83 | < -1
SAGGSAGGSAGGMSVSPEGYSVSVTGSGPRGVPVPASNAAEQRAALAAQPDVSSVTVTASSAGGSAGGSAGG [r11_587_JUSTAS] | 0.36 ± 0.05 | -0.883 ± 0.18

— the supplement of paper PMC12764529
